This is an account of results in patent publication US20050282743A1, “Molecular interactions in cells” (Arbor Vita Corporation, priority 2001, published 2005).

The target of experiment [1] is T1, GST-ZO-1 PDZ domain 2 (Rattus norvegicus (Rat)), A0A0G2.
T1 chain: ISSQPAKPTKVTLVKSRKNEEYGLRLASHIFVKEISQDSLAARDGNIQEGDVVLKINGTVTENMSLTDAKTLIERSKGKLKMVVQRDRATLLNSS
The experiment in a line: G' assay. Note: key of the grades not given here.

Experiment [2] concerns the target T2, GST-FLJ 10324 PDZ domain 1 [GST: P08515].
T2 chain: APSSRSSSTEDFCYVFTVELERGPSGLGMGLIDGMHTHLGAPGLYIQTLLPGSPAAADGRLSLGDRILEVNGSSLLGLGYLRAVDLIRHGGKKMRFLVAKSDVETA
The experiment can be described thus: G' assay. Note: key of the grades not given here.

Experiment [3] concerns the target GST-KIAA807 [GST: P08515]. The experiment in a line: G' assay. Note: key of the grades not given here.
In experiment [4] the target is T3, GST-KIAA0807(S) PDZ domain 1 (Homo sapiens (Human)), Q6P0Q8.
T3 chain: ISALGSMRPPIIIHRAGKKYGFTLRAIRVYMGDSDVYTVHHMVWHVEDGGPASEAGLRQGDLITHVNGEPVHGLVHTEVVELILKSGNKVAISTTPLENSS
The experiment in a line: G' assay. Note: key of the grades not given here.

In experiment [5] the target is T4, GST-HEMBA 1003117 PDZ domain 1 (Homo sapiens (Human)), Q96JH8.
T4 chain: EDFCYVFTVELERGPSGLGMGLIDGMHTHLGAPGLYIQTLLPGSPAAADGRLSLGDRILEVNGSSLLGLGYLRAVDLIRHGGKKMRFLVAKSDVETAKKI
The experiment can be described thus: G' assay. Note: key of the grades not given here.

Experiment [6] deals with T5, GST-PTPL1 PDZ domain 4 (Homo sapiens (Human)), Q12923.
T5 chain: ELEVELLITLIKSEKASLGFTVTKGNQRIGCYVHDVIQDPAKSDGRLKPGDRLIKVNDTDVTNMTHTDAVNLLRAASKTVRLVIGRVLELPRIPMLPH
The experiment can be described thus: G' assay. Note: key of the grades not given here.

In experiment [7] the target is T6, GST-PICK1 PDZ domain 1 (Bos taurus (Bovine)), Q2T9M1.
T6 chain: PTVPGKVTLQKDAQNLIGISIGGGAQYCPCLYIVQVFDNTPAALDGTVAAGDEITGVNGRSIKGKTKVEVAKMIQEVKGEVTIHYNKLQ
The experiment in a line: G' assay.

For experiment [8], the target named is GST-KIAA1634 PDZ domain 1 (Homo sapiens (Human)), Q5TCQ9. The experiment can be described thus: G' assay. Note: key of the grades not given here.
The target in experiment [9] is T2, GST-FLJ 10324 PDZ domain 1 [GST: P08515]. The experiment in a line: G assay titration, PDZ 1 ug/ml.
For experiment [10], the target named is GST-KIAA807 [GST: P08515]. The experiment can be described thus: G assay titration, PDZ 5 ug/ml.
Experiment [11] addresses T3, GST-KIAA0807(S) PDZ domain 1 (Homo …). The experiment can be described thus: G assay titration, PDZ 5 ug/ml.
Experiment [12] has as its target T4, GST-HEMBA 1003117 PDZ domain 1 (Homo …). The experiment can be described thus: G assay titration, PDZ 5 ug/ml.
The target in experiment [13] is T5, GST-PTPL1 PDZ domain 4 (Homo sapiens …). The experiment can be described thus: G assay titration, PDZ 5 ug/ml.
In experiment [14] the target is T6, GST-PICK1 PDZ domain 1 (Bos taurus …). The experiment in a line: G assay titration, PDZ 5 ug/ml.
Experiment [15] deals with GST-KIAA1634 PDZ domain 1 (Homo sapiens (Human)), Q5TCQ9. The experiment in a line: G assay titration, PDZ 5 ug/ml.
Experiment [16] addresses T7, GST-INADL PDZ domain 8 (Homo sapiens (Human)), Q8NI35.
T7 chain: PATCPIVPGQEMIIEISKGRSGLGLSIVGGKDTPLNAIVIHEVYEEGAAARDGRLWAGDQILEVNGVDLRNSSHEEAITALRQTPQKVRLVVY
The experiment can be described thus: G' assay.

Experiment [17] addresses T8, GST-NOS1 PDZ domain 1 (Homo sapiens (Human)), P29475.
T8 chain: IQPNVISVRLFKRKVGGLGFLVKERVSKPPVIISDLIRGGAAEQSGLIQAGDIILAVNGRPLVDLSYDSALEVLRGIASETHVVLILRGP
The experiment can be described thus: G' assay. The following applies: remark: other sources report otherwise.

Experiment [18] concerns the target T9, GST-ZO-2 PDZ domain 1 (Homo sapiens (Human)), Q9UDY2.
T9 chain: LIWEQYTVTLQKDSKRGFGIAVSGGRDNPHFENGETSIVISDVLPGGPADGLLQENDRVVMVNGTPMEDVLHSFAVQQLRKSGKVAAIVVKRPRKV
The experiment can be described thus: G' assay.

Experiment [19] concerns the target GST-PIST PDZ domain 1 (Mus musculus (Mouse)), Q8BH60. The experiment in a line: G' assay. Note: key of the grades not given here.
Experiment [20] deals with T10, GST-Shank 1 PDZ domain 1 (Homo sapiens (Human)), Q9UPX8.
T10 chain: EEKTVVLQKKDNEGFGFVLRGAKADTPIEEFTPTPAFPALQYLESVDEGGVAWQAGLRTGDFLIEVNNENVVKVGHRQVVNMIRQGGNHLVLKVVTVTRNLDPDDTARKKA
The experiment in a line: G' assay.

For experiment [21], the target named is T11, GST-Shank 3 PDZ domain 1 (human (hypothetical, computer cloned)), Q9BYB0.
T11 chain: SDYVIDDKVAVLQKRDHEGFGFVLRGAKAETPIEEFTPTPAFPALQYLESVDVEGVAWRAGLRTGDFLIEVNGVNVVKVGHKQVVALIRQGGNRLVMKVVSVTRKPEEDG
The experiment can be described thus: G' assay.

The target of experiment [22] is T12, GST-EZRIN Binding Protein 50 PDZ domain 1 (Homo sapiens (Human)), O14745.
T12 chain: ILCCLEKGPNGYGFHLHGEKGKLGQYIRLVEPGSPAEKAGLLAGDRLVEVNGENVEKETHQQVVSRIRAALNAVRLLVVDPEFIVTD
The experiment in a line: G' assay.

Experiment [23] addresses T13, GST-BAI-1 Associated Protein PDZ domain 2 (Mus musculus (Mouse)), Q6RHR9. The experiment in a line: G' assay. Note: key of the grades not given here.
Experiment [24] addresses T14, GST-ZO-1 PDZ domain 1 (Rattus norvegicus (Rat)), A0A0G2.
T14 chain: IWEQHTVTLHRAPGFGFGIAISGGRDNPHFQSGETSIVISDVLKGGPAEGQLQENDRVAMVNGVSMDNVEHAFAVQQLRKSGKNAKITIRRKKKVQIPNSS
The experiment in a line: G' assay.

The target in experiment [25] is T15, GST-Outer Membrane PDZ domain 1 (Homo sapiens (Human)), P57105.
T15 chain: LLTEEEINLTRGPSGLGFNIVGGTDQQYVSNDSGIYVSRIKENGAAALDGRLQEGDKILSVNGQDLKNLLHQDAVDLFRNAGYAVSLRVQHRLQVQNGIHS
The experiment can be described thus: G' assay.

For experiment [26], the target named is T16, GST-MUPP1 PDZ domain 10 (Homo sapiens (Human)), O75970.
T16 chain: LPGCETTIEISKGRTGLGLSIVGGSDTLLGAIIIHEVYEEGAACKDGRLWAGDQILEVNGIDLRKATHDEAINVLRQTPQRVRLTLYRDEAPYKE
The experiment in a line: G' assay.

Experiment [27] deals with T17, GST-Atrophin-1 Interacting Protein PDZ domain 1 (Rattus norvegicus (Rat)), O88382. The experiment can be described thus: G' assay. Note: key of the grades not given here.
The target of experiment [28] is GST-DLG1 PDZ domains 1, 2 (Homo sapiens), Q12959. The experiment in a line: G' assay. Note: key of the grades not given here.
The target in experiment [29] is T18, GST-NeDLG PDZ domains 1, 2, Q92796.
T18 chain: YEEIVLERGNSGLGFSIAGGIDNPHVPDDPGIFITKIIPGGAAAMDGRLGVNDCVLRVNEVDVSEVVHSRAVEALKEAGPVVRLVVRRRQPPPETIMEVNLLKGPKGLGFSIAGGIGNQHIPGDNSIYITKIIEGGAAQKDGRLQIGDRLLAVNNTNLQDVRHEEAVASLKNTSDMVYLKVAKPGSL
The experiment in a line: G' assay.

The target of experiment [30] is T19, GST-TIP1 PDZ domain 1 (Table 9 insert) (Homo sapiens (Human)), O14907.
T19 chain: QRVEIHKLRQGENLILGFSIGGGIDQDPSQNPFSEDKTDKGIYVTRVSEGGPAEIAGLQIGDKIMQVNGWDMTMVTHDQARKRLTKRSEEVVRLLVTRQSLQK
The experiment can be described thus: G' assay.

The target in experiment [31] is GST-PSD95 PDZ domains 1, 2, 3 (Homo sapiens), P78352. The experiment can be described thus: G' assay. Note: key of the grades not given here.
The target of experiment [32] is T20, GST-EZRIN Binding Protein 50 PDZ domain 2 (Homo sapiens (Human)), O14745.
T20 chain: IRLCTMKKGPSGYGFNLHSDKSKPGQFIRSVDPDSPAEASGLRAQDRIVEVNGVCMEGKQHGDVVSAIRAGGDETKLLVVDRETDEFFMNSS
The experiment can be described thus: G' assay.

The target in experiment [33] is GST-PIST PDZ domain 1 (Mus musculus (Mouse)), Q8BH60. The experiment in a line: G assay titration, PDZ 0.5 ug/ml.
Experiment [34] has as its target T9, GST-ZO-2 PDZ domain 1 (Homo sapiens …). The experiment in a line: G assay with desipramine or nortryptilline against no drug.
Experiment [35] deals with GST-KIAA1634 PDZ domain 1 (Homo sapiens (Human)), Q5TCQ9. The experiment in a line: G assay titration, PDZ 0.3 ug/ml.
Experiment [36] concerns the target T9, GST-ZO-2 PDZ domain 1 (Homo sapiens …). The experiment can be described thus: G assay titration, PDZ 1 ug/ml.
In experiment [37] the target is T10, GST-Shank 1 PDZ domain 1 (Homo sapiens …). The experiment in a line: G assay titration, PDZ 1 ug/ml.
For experiment [38], the target named is T14, GST-ZO-1 PDZ domain 1 (Rattus …). The experiment can be described thus: G assay titration, PDZ 1 ug/ml.
Experiment [39] has as its target T16, GST-MUPP1 PDZ domain 10 (Homo sapiens …). The experiment in a line: G assay titration, PDZ 1 ug/ml.
In experiment [40] the target is T17, GST-Atrophin-1 Interacting Protein PDZ …. The experiment in a line: G assay titration, PDZ 1 ug/ml.
The target in experiment [41] is T13, GST-BAI-1 Associated Protein PDZ domain …. The experiment can be described thus: G assay titration, PDZ 0.1 ug/ml.

Chain of GST-KIAA1634 PDZ domain 1 (Homo sapiens (Human)), Q5TCQ9 (Q5TCQ9 401-502): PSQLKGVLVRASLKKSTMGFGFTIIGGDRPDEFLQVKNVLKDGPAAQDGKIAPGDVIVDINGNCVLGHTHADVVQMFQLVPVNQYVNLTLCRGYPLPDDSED
Chain of GST-KIAA807 [GST: P08515] (P08515 whole entry, the tested form may be a part): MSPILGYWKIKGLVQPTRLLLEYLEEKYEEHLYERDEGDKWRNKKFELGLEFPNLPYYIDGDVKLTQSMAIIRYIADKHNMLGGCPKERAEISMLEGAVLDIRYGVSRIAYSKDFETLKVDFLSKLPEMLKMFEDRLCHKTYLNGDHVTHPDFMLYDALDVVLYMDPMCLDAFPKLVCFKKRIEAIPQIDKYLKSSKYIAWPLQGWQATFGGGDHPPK
T17 sequence (O88382 408-511): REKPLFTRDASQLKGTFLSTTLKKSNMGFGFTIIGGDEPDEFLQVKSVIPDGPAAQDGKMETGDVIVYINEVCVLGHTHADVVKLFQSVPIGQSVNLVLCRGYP
T13 sequence (Q6RHR9 455-558): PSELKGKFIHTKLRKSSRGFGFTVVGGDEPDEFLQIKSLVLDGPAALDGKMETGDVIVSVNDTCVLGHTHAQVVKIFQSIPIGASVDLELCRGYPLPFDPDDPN
Chain of GST-PSD95 PDZ domains 1, 2, 3 (Homo sapiens), P78352 (P78352 62-395): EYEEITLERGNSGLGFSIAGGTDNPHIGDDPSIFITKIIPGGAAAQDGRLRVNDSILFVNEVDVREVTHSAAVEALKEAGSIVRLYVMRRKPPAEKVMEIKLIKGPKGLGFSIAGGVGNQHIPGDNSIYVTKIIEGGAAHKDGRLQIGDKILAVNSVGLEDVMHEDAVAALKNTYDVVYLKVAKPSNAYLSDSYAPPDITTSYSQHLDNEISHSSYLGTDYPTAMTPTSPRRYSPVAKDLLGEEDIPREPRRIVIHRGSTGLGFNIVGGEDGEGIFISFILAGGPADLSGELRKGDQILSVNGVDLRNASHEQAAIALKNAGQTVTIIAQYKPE

B1: Dopamine transporter (peptide)
peptide: RELVDRGEVRQFTLRHWLKV
modifications: not checked
As for B1, the Classification in [1] stood at 1 A450 class; in experiment [2], 5 A450 class; in experiment [3], 4 A450 class; in experiment [4] it was 4 A450 class; in [5], 5 A450 class; in experiment [6] it was 3 A450 class. Besides, the results for the Classification in experiment [7] and in experiment [8] were 2 A450 class and 3 A450 class, respectively. The Kd in [9] amounted to 300 nM; in experiment [10] it was 400 nM; in experiment [11], 400 nM; in experiment [12] it was 300 nM; in experiment [13] it was 400 nM; in experiment [14], 900 nM. In addition, the Kd in experiment [15] worked out at 900 nM.

B2: DNAM-1 (peptide)
peptide: TREDIYVNYPTFSRRPKTRV
modifications: not checked
Regarding B2, the Classification in [16] worked out at 5 A450 class; in experiment [17] it was 1 A450 class; in [18] it was 3 A450 class; in [19], 4 A450 class; in experiment [20] it was 5 A450 class; in experiment [21] it was 2 A450 class. For the same molecule, the Classification in experiment [22] was 1 A450 class; in experiment [23] it was 5 A450 class; in experiment [3] it was 3 A450 class; in [4] it was 3 A450 class; in experiment [24] it was 2 A450 class; in [25], 1 A450 class. Moreover, the Classification in experiment [26] amounted to 4 A450 class; in experiment [27], 3 A450 class; in [28], 1 A450 class; in experiment [29], 2 A450 class; in [8], 5 A450 class; in experiment [30], 1 A450 class. For the same molecule, the Classification in experiment [31] was 2 A450 class; in experiment [32], 1 A450 class. Besides, the Kd in experiment [33] came out at 2500 nM; in experiment [35], 1000 nM; in experiment [36] it was 3000 nM; in [37], 5000 nM; in experiment [38] it was 5000 nM; in experiment [39], 2500 nM. The Kd in experiment [40] was determined as 3000 nM; in experiment [41], 4000 nM; in [10] it was 2000 nM; in experiment [11] it was 2000 nM. Further, the fold decrease of binding with drug in experiment [34] amounted to 4.2 fold.

In general, Kd refers to the concentration at which binding is half-saturated.
